# Measurements published in the supplement of paper PMC10567573.
# B1: TRIM29 (parent)
# chain: FAEKGELRKSIFSESRKPTVSIME
# Variants of: B1
# Test: protein stability index of a GFP-peptide fusion (GPS, HEK-293T) (PSI 1-6); higher = more stable
# Conditions: c terminus: a fixed tail appended
# 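Also: lentivirally expressed fusions sorted by FACS into six bins by GFP to DsRed ratio, PSI derived from sequencing read proportions per bin multiplied by bin number.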
row,Variant,protein stability index
1,FAEPGELRKSIFSESRKPTVSIME [K4P],1.8
2,FAETGELRKSIFSESRKPTVSIME [K4T],2.14
3,FAEEGELRKSIFSESRKPTVSIME [K4E],2.33
4,FAERGELRKSIFSESRKPTVSIME [K4R],2.08
5,FAEMGELRKSIFSESRKPTVSIME [K4M],1.39
6,FAEAGELRKSIFSESRKPTVSIME [K4A],1.87
7,FAEDGELRKSIFSESRKPTVSIME [K4D],2.06
8,FAEIGELRKSIFSESRKPTVSIME [K4I],2.1
9,FAEYGELRKSIFSESRKPTVSIME [K4Y],2.16
10,FAECGELRKSIFSESRKPTVSIME [K4C],2.24
11,FAEGGELRKSIFSESRKPTVSIME [K4G],2.02
12,FAESGELRKSIFSESRKPTVSIME [K4S],1.8
13,FAELGELRKSIFSESRKPTVSIME [K4L],2.38
14,FAEHGELRKSIFSESRKPTVSIME [K4H],1.75
15,FAEVGELRKSIFSESRKPTVSIME [K4V],2.38
16,FAEWGELRKSIFSESRKPTVSIME [K4W],3.24
17,FAENGELRKSIFSESRKPTVSIME [K4N],2.53
18,FAEQGELRKSIFSESRKPTVSIME [K4Q],1.71
19,FAEFGELRKSIFSESRKPTVSIME [K4F],1.77
20,IAEKGELRKSIFSESRKPTVSIME [F1I],3.63
21,TAEKGELRKSIFSESRKPTVSIME [F1T],3.95
22,GAEKGELRKSIFSESRKPTVSIME [F1G],3.89
23,QAEKGELRKSIFSESRKPTVSIME [F1Q],3.97
24,PAEKGELRKSIFSESRKPTVSIME [F1P],3.9

row,Variant,protein stability index
1,WAEKGELRKSIFSESRKPTVSIME [F1W],2.6
2,VAEKGELRKSIFSESRKPTVSIME [F1V],3.94
3,CAEKGELRKSIFSESRKPTVSIME [F1C],2.68
4,MAEKGELRKSIFSESRKPTVSIME [F1M],3.73
5,NAEKGELRKSIFSESRKPTVSIME [F1N],4.34
6,HAEKGELRKSIFSESRKPTVSIME [F1H],4.29
7,LAEKGELRKSIFSESRKPTVSIME [F1L],3.14
8,YAEKGELRKSIFSESRKPTVSIME [F1Y],1.45
9,EAEKGELRKSIFSESRKPTVSIME [F1E],4.13
10,KAEKGELRKSIFSESRKPTVSIME [F1K],4.27
11,DAEKGELRKSIFSESRKPTVSIME [F1D],4.75
12,RAEKGELRKSIFSESRKPTVSIME [F1R],3.66
13,SAEKGELRKSIFSESRKPTVSIME [F1S],3.58
14,AAEKGELRKSIFSESRKPTVSIME [F1A],4.35
15,FAEKGSLRKSIFSESRKPTVSIME [E6S],1.8
16,FAEKGWLRKSIFSESRKPTVSIME [E6W],2.02
17,FAEKGPLRKSIFSESRKPTVSIME [E6P],2.78
18,FAEKGTLRKSIFSESRKPTVSIME [E6T],1.56
19,FAEKGVLRKSIFSESRKPTVSIME [E6V],1.93
20,FAEKGDLRKSIFSESRKPTVSIME [E6D],1.44
21,FAEKGMLRKSIFSESRKPTVSIME [E6M],1.78
22,FAEKGRLRKSIFSESRKPTVSIME [E6R],1.64
23,FAEKGALRKSIFSESRKPTVSIME [E6A],1.77
24,FAEKGHLRKSIFSESRKPTVSIME [E6H],2.38

row,Variant,protein stability index
1,FAEKGILRKSIFSESRKPTVSIME [E6I],1.82
2,FAEKGQLRKSIFSESRKPTVSIME [E6Q],1.45
3,FAEKGLLRKSIFSESRKPTVSIME [E6L],2.78
4,FAEKGNLRKSIFSESRKPTVSIME [E6N],1.36
5,FAEKGFLRKSIFSESRKPTVSIME [E6F],2.65
6,FAEKGYLRKSIFSESRKPTVSIME [E6Y],1.84
7,FAEKGKLRKSIFSESRKPTVSIME [E6K],1.85
8,FAEKGGLRKSIFSESRKPTVSIME [E6G],1.47
9,FAEKGCLRKSIFSESRKPTVSIME [E6C],2.57
10,FAEKGELFKSIFSESRKPTVSIME [R8F],2.64
11,FAEKGELDKSIFSESRKPTVSIME [R8D],2.55
12,FAEKGELPKSIFSESRKPTVSIME [R8P],1.89
13,FAEKGELLKSIFSESRKPTVSIME [R8L],2.32
14,FAEKGELCKSIFSESRKPTVSIME [R8C],2.08
15,FAEKGELMKSIFSESRKPTVSIME [R8M],1.81
16,FAEKGELIKSIFSESRKPTVSIME [R8I],2.81
17,FAEKGELEKSIFSESRKPTVSIME [R8E],2
18,FAEKGELKKSIFSESRKPTVSIME [R8K],2.23
19,FAEKGELGKSIFSESRKPTVSIME [R8G],1.56
20,FAEKGELNKSIFSESRKPTVSIME [R8N],2.44
21,FAEKGELHKSIFSESRKPTVSIME [R8H],1.54
22,FAEKGELQKSIFSESRKPTVSIME [R8Q],1.93
23,FAEKGELAKSIFSESRKPTVSIME [R8A],3.85
24,FAEKMELRKSIFSESRKPTVSIME [G5M],1.72

row,Variant,protein stability index
1,FAEKKELRKSIFSESRKPTVSIME [G5K],1.78
2,FAEKSELRKSIFSESRKPTVSIME [G5S],2.11
3,FAEKNELRKSIFSESRKPTVSIME [G5N],1.93
4,FAEKCELRKSIFSESRKPTVSIME [G5C],1.15
5,FAEKRELRKSIFSESRKPTVSIME [G5R],1.7
6,FAEKAELRKSIFSESRKPTVSIME [G5A],1.99
7,FAEKTELRKSIFSESRKPTVSIME [G5T],1.64
8,FAEKFELRKSIFSESRKPTVSIME [G5F],2.17
9,FAEKEELRKSIFSESRKPTVSIME [G5E],1.69
10,FAEKIELRKSIFSESRKPTVSIME [G5I],2.31
11,FAEKHELRKSIFSESRKPTVSIME [G5H],2.3
12,FAEKQELRKSIFSESRKPTVSIME [G5Q],2.02
13,FAEKLELRKSIFSESRKPTVSIME [G5L],2.37
14,FAEKWELRKSIFSESRKPTVSIME [G5W],2.04
15,FAEKPELRKSIFSESRKPTVSIME [G5P],2.46
16,FAEKDELRKSIFSESRKPTVSIME [G5D],1.8
17,FAEKYELRKSIFSESRKPTVSIME [G5Y],2.53
18,FAEKVELRKSIFSESRKPTVSIME [G5V],1.66
19,FAEKGEVRKSIFSESRKPTVSIME [L7V],1.62
20,FAEKGEMRKSIFSESRKPTVSIME [L7M],2.02
21,FAEKGECRKSIFSESRKPTVSIME [L7C],2.8
22,FAEKGEWRKSIFSESRKPTVSIME [L7W],3.9
